Data on eleven molecules can be found in patent US20190177415A1 (PIERRE FABRE MEDICAMENT, published 2019).

To fix the notation:
T1: C10orf54 (antigen of the KD values in Table 42) (human, UniProt Q9H7M9 33-311, limits assumed)
T1 sequence: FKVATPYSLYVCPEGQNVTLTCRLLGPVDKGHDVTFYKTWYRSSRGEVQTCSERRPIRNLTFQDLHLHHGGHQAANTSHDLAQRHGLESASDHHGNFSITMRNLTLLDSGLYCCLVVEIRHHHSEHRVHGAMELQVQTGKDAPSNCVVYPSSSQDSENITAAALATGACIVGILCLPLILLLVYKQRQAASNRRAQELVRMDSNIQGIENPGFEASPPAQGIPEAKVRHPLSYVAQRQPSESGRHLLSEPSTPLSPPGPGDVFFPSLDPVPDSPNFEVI

T2: chimeric C10orf54: first half of IgV mouse and remainder (including loop) human (construct CC8) (human/mouse chimera, UniProt Q9H7M9 33-311)
T2 construct: also called C10orf54 Construct 8; mmabChsC10
T2 chain: T1 sequence with A4T, V18A, L24I, D29S, F36I, R42L, T50M

T3: chimeric C10orf54: human IgV with mouse STALK (construct CC5) (human/mouse chimera)
T3 construct: also called C10orf54 Construct 5; hsIGVmmSTALK
T3 chain: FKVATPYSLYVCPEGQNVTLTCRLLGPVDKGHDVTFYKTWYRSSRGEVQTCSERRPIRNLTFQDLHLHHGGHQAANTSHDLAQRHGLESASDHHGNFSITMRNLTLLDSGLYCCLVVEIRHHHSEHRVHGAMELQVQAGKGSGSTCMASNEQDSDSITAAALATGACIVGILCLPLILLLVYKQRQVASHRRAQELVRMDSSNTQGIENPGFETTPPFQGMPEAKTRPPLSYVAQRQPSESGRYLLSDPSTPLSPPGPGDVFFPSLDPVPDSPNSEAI

T4: full length cynomolgus monkey C10orf54 (construct CC4) (cynomolgus monkey, UniProt Q9H7M9 33-311 (human entry))
T4 construct: also called C10orf54 Construct 4
T4 chain: T1 sequence with P6L, L24V, L25F, N145S, V148A, D155E, I205T, P217S, P223L, S251G

T5: chimeric C10orf54: mouse with human loop (construct CC10) (human/mouse chimera, UniProt Q9D659 33-308 (mouse entry))
T5 construct: also called C10orf54 Construct 10; mmC10hsLOOP
T5 chain: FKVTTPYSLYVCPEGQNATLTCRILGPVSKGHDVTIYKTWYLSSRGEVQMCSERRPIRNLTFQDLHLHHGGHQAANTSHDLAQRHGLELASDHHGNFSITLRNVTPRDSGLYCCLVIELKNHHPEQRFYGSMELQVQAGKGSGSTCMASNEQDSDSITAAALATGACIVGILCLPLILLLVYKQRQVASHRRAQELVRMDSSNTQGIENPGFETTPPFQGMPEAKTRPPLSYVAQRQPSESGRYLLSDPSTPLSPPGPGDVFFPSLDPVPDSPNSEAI

T6: chimeric C10orf54: human with mouse loop (construct CC9) (human/mouse chimera, UniProt Q9H7M9 33-311)
T6 construct: also called C10orf54 Construct 9; hsC10mmLOOP
T6 chain: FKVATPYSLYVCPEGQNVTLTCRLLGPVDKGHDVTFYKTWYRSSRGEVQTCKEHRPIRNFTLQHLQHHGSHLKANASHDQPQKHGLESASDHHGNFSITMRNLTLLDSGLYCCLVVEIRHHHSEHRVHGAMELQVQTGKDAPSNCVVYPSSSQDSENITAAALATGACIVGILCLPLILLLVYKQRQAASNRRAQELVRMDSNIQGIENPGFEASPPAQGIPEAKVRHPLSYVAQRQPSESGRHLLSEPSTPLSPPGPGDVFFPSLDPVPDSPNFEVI

B1: murine monoclonal antibody 26A (antibody, V domains shown)
VH: EVQLQQSGPELVKPGASMKISCKASGFSFTGYTMNWVKQSHVKNLEWIGLISPYNGGTSYNQKFKGKATLTVDKSSSTAYMELLSLTSEDSAVYYCARRAYGYAMDYWGQGTSVTVSS
VL: QIVLTQSPAIMSASPGEKVTMTCSASSSVSYMYWYQQKPGSSPRLLIYDTSNLASGVPLRFSGSGSGTSYSLTISRMEAEDAATYYCQQWSSYPFTFGSGTKLEIK
notes: Mouse hybridoma antibody
B2: murine monoclonal antibody 353A (antibody, V domains shown)
VH: EVKLLESGGGLVQPGGSLKLSCAASGFDFSRYWMNWVRQAPGKGLEWIGEINPDSSTINYTPSLKDKFIISRDNAKNTLYLQMSKVRYEDTALYYCARPGEIYYYGSYWFAYWGQGTLVTVSA
VL: DIVLTQSPASLAVSLGQRATISCRASESVEYYGTSLMQWFQQKPGQPPKLLIYAASNVESRVPARFSGSGSGTDFSLNIHPVEEDDIAMYFCQQSRKDPWTFGGGTKLEIK
notes: Mouse hybridoma antibody
B3: murine monoclonal antibody 5B (antibody, V domains shown)
VH: QVQLQQSGAELVRPGVSVKISCKGSGYTFTDYGMHWVKQSHAKSLEWIGIIDTYYGDATYNQKFKGKATMTVDKSSSTAYMELARLTSEDSAIYYCARRAGNAMDYWGQGTSVTVSS
VL: NIVMTQTPKFLLVSAGDRVTITCKASQSVSNDVAWYQQKPGQSPKLLIYYASNRYTGVPDRFTGSGYGTDFTFTISTVQAEDLAVYFCQQDYSSPRTFGGGTKLEIK
notes: Mouse hybridoma antibody
B4: murine monoclonal antibody 128A (antibody, V domains shown)
VH: B3 VH with I50L, Q62H, S77R, V115A
VL: B3 VL with V3A, V33I, K45R
notes: Mouse hybridoma antibody
B5: murine monoclonal antibody 208A (antibody, V domains shown)
VH: B3 VH with I50V, T59G
VL: B3 VL with N1S
notes: Mouse hybridoma antibody
B6: murine monoclonal antibody 230A (antibody, V domains shown)
VH: EVQLQQSGPELEKPGASVKISCKASGYSFTGSNMNWVKQNNGKSLEWIGNIDPYYGYTTYNQKFKGKATLTVDKSSSTAYMQLKSLTSEDSAVYYCARDYDYALGYFDVWGAGTTVTVSS
VL: DVVMTQTPLSLPVSLGDQASISCRSSQSLVHSNGNTYLHWYLQKPGQSPKLLIYKVSNRFSGVPDRFSGSGSGTDFTLKISRVEAEDLGVYFCSQSTHVPYTFGGGTKLEIK
notes: Mouse hybridoma antibody
B7: murine monoclonal antibody 33A (antibody, V domains shown)
VH: QVQLQQSGAELMKPGASVKISCKATGYTFSSYWIEWVKQRPGHGLEWIGEILPGSGSTSYNEKFKGKATFTADTSSNTAYMQLSGLTSEDSAVYYCARWLLYYYAMVYWGQGTSVTVSS
VL: B6 VL with V3L, L29I, H39E, F92Y, S94F, S96G, T97S
notes: Mouse hybridoma antibody
B8: murine monoclonal antibody 321D (antibody, V domains shown)
VH: B7 VH with S17A, Y32H, S59D, G85S, V107D
VL: B6 VL with V3L, L29I, H39E, S81T, F92Y, S94F, S96G, T97S, Y101F
notes: Mouse hybridoma antibody
B9: murine monoclonal antibody 141A (antibody, V domains shown)
VH: QVQLQQSGAELMKPGASVKISCKATGYTFSRYWIEWVKQRPGHGLEWIGEILPGSGSTNYNEKFKGKATFTADTSSNTAYMQLSSLTSEDSAVYYCAGEEVYDGYPWFGYWGQGTLVTVSA
VL: QIVLSQSPAILSASPGEKVTMTCRASSSLSYMHWYQQKPGSSPKPWIYATSNLASGVPARFSGSGSGTSYSLTISRVEAEDAATYYCQQWSSNPYTFGGGTKLEIK
notes: Mouse hybridoma antibody
B10: murine monoclonal antibody 146C (antibody, V domains shown)
VH: B3 VH with I50L, Q62H, S77R, V115A
VL: B3 VL with V3A, V33I, K45R
notes: Mouse hybridoma antibody
B11: murine monoclonal antibody 175A (antibody, V domains shown)
VH: B7 VH with S31T, Y32H, G85S, V107D
VL: B6 VL with V3L, L29I, H39E, V56L, F92Y, S94F, S96G, T97S, V99F
notes: Mouse hybridoma antibody

Positions count from the first letter of the chain named.

One assay deals with T1, C10orf54 (antigen of the KD values in …). The experiment in a line: method and antigen form not stated.
Broadly, the Kd is a measure of binding affinity in units of concentration. The molecule B1 had a Kd of 0.677 nM.

On to B2, for which the Kd turned out to be 2.9 nM.

B3 came in with a dissociation constant (Kd) of 0.974 nM.

B4 registered a Kd of 0.635 nM.

In turn, B5 gave a Kd of 2.48 nM.

As for B6, the Kd is 1.05 nM.

As to B7, the affinity, expressed as Kd, was 6.61 nM.

On to B8, for which the affinity, expressed as Kd, was 7.26 nM.

Consider B9, for which the Kd stood at 1.27 nM.

The next assay deals with T2, chimeric C10orf54: first half of IgV …. Kind of assay: flow cytometry, transfected 293t cells, 2 ug/ml; stain = MFI >=20-fold over isotype control. As to the method:
(§1) To investigate epitope diversity of the anti-human C10orf54 antibodies, 293t cells were transfected with 1 of 10 different C10orf54 expression constructs that co-express a fluorescent marker. Two days after transfection, cells were stripped from the tissue culture plate, stained with 2 μg/ml anti-human C10orf54 antibody , washed, stained with anti-mouse IgG-Fc Alexa Fluor 647 polyclonal antibody, washed, and stained with the viability dye 4′,6-Diamidino-2-Phenylindole, Dihydrochloride. Upon acquisition of 10,000 live events on a flow cytometer, live cells marked with the fluorescent marker were analyzed for the degree of staining by the anti-human C10orf54 antibody. When the median fluorescence intensity fold-change relative to an isotype control antibody was at least 20-fold, the antibody was considered to stain the C10orf54 expression construct in question.
(In general: Flow cytometry measures light scatter and fluorescence of single cells or particles in a stream.)
Regarding B1, the binding result was “binds”.

As for B2, the binding result is given as “binds”.

For B3, the binding result is on record as “binds”.

Consider B4, for which the binding result is “binds”.

Turning to B10, the binding result is on record as “binds”.

Consider B5, for which the binding result is “binds”.

On to B6, for which the binding result is reported as “binds”.

As for B7, the binding result is “binds”.

Take B8: the binding result is “binds”.

In the case of B9, the binding result was “binds”.

The target of another assay is T3, chimeric C10orf54: human IgV with mouse …. Described as above. As to the method: as §1
Take B1: the binding result is “binds”.

Consider B2, for which the binding result is listed as “binds”.

In the case of B3, the binding result is listed as “binds”.

As for B4, the binding result was “binds”.

As for B10, the binding result is listed as “binds”.

Take B5: the binding result is “binds”.

On to B6, for which the binding result is listed as “binds”.

For the molecule B7, the binding result was “binds”.

For the molecule B11, the binding result is “binds”.

In the case of B8, the binding result is reported as “binds”.

On to B9, for which the binding result is reported as “binds”.

The target in another assay is T4, full length cynomolgus monkey C10orf54 …. The assay is described as above. As to the method: as §1
Consider B1, for which the binding result is listed as “binds”.

For the molecule B2, the binding result was “binds”.

B3: the binding result was “binds”.

Turning to B4, the binding result is “binds”.

As to B10, the binding result was “binds”.

In the case of B5, the binding result is recorded as “binds”.

Take B6: the binding result is “binds”.

In the case of B7, the binding result is listed as “binds”.

As to B11, the binding result was “binds”.

For B8, the binding result is recorded as “binds”.

As for B9, the binding result was “binds”.

The target in the next assay is T5, chimeric C10orf54: mouse with human …. Described as above. As to the method: as §1
B1: the binding result is “binds”.

As for B3, the binding result is “binds”.

For the molecule B4, the binding result is listed as “binds”.

Take B10: the binding result is recorded as “binds”.

Take B5: the binding result is “binds”.

For B6, the binding result is “binds”.

As to B7, the binding result was “binds”.

B8: the binding result is listed as “binds”.

The target in a further assay is T6, chimeric C10orf54: human with mouse …. The assay is described as above. As to the method:
as §1
For the molecule B2, the binding result is “binds”.

As to B9, the binding result was “binds”.

The target of a further assay is T1, C10orf54 (antigen of the KD values in …). Kind of assay: method and antigen form not stated; footnote: low affinity antibody.
Molecule B11 gave a dissociation constant (Kd) of 108 nM.
